B1: rat GALP (peptide)
peptide: APAHRGRGGWTLNSAGYLLGPVLHLSSKANQGRKTDSALEILDLWKAIDGLPYSRSPRMT
B2: human GALP (peptide)
peptide: APAHRGRGGWTLNSAGYLLGPVLHLPQMGDQDGKRETALEILDLWKAIDGLPYSHPPQPS
B3: porcine GALP (peptide)
peptide: APVHRGRGGWTLNSAGYLLGPVLHPPSRAEGGGKGKTALGILDLWKAIDGLPYPQSQLAS

molecular target: monoclonal antibody GR-1Ca; experiment: competitive EIA: GALP varied against HRP-labeled [Cys^43] rat GALP (43-60); GR-1Ca solution of 80 ng/ml on anti-mouse immunoglobulin plate

IC50 [nM]	Binder
3	B1
7	B2
8	B3

molecular target: monoclonal antibody GR-2Ca; experiment: competitive EIA: GALP varied against HRP-labeled [Cys^43] rat GALP (43-60); GR-2Ca solution of 80 ng/ml on anti-mouse immunoglobulin plate

IC50 [nM]	Binder
10	B1
20	B2
500	B3

— patent publication US20040214230A1
